In PMC6698962 (Antibodies, 2018):
“And” between values parts separate entries of the source, which are not always exact repeats. Equal entries are not always repeated.

Experiments:
[1] = target: fluorescent-binding TNF nanobody (BTN-Kat) (Bactrian camel); experiment: SEC; Superose 6, 5 mg/mL protein, 20 mM NaPi pH 7.4, 150 mM NaCl, 0.5 mL/min; apparent molecular mass from calibration with standard proteins
[2] = target: T1, human tumor necrosis factor (TNF) (Homo sapiens (huTNFKI mouse BMDM), UniProt P01375); experiment: flow cytometry on cells; intracellular cytokine staining (BD fixation and permeabilisation kit with GolgiPlug) of BMDM activated by LPS (100 ng/mL, 4 h) in the presence of brefeldin A; Fc-gamma receptor blocked; cells gated on F4/80; Katushka fluorescence read; details: one partner purified
T1 construct: tumor necrosis factor, human, expressed in place of murine TNF in huTNFKI mice; stained inside fixed and permeabilised cells kept with brefeldin A; in the in vivo rows the hTNF of the knock-in mice; also called hTNF; human TNF
T1 sequence (P01375 whole entry): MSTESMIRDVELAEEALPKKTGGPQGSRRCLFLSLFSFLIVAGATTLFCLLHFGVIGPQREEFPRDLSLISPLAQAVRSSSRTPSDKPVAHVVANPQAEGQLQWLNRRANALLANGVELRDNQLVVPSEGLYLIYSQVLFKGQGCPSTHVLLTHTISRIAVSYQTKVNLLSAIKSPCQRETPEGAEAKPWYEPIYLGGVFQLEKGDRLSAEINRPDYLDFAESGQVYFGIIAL

[3] = target: T2, mouse tumor necrosis factor (TNF) (Mus musculus C57Bl/6, UniProt P06804); experiment: as above; details: one partner purified
T2 construct: tumor necrosis factor, mouse; stained inside fixed and permeabilised cells kept with brefeldin A; also called mouse TNF; murine TNF
T2 sequence (P06804 whole entry): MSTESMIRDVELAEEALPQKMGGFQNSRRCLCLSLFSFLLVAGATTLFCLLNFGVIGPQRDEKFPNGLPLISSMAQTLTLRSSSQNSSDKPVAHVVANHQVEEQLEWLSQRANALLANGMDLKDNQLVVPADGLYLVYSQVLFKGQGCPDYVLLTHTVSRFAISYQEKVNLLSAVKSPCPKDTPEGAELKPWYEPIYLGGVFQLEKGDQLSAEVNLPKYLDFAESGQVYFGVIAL

B1: fluorescent-binding TNF nanobody (BTN-Kat) (VHH)
VHH: QVQLVESGGGSVQAGGSLRLSCAASGSTNSELCMAWFREVPGKEREVVALVNSDGRTIYGEAVKGRFTMSKDNAKNTLYLQMNSLKAEDTAMYYCAAGPGFFGRCNYNSVGQGTQVTVSS
notes: flexible glycine-serine linker; far-red fluorescent protein Katushka (TurboFP635); A mixture of oligomeric forms was used in all experiments; Expression and purification are in Method S1; also called VHH41 fused to Katushka; source: E. coli (BL21(DE3) is named in the title of Result S1), purified
[1]
  stoichiometry N: 2 and 3
[2]
  binding result: binds
[3]
  binding result: binds
